Reference: patent publication US20240279288A1, “APPLICATION OF PLANT JAZ PROTEINS AND DERIVED POLYPEPTIDES IN PREVENTION AND TREATMENT OF HUMAN AND ANIMAL TUMORS” (ANYANG INSTITUTE OF SINO-COTTON INDUSTRY INNOVATION, priority 2021, published 2024)

Legend:
c-Myc = c-Myc (Homo sapiens, UniProt P01106); experiment: GST Pull down experiment with c-Myc; type: binding; design: with the full length of c-Myc and NMYC, respectively; expressed in transfected cells; host or cells: yeast Y2HGold; conditions: GST-c-Myc and His-GhJAZ1 fusion proteins
From the text: Simultaneously, the interaction was validated by GST Pull down experiment. Firstly, pET-30a-GhJAZ1 (the DNA sequence set forth in SEQ ID No. 39 was inserted into pET-30a (+) vector (YouBio, Cat. No.: VT1212) between NdeI and HindIII) and pGEX-4T-1-c-Myc vectors (the CDS sequence of c-Myc (NCBI accession number: NM_002467.6) was inserted into pGEX-4T-1 vector (YouBio, Cat. No.: VT1253) between BamHI and EcoRI) was constructed and transformed into Escherichia coli BL21, which was placed on ice for 30 min, followed by heat shock at 42° C. for 60 s, and then placed on ice for 2 min, and then LB medium was added for cultivation at 37° C. and 200 rpm for 1 h, which was plated onto LB plates containing corresponding antibiotics for cultivation at 37° C. After colonies grown out, monoclonal clones were picked and shaking for incubation and expanded until the medium began to turn slightly white, and then different concentrations of IPTG were added for induction and cultured overnight under different temperatures setting. Subsequently, centrifugation at 5,000 rpm, 4° C. was carried out for 10 min, with addition of an equal volume of PBS (supplemented with PMSF and DTT) for resuspending. […] The supernatant was transferred into a protein purification column, and washed and eluted following incubation, and then proteins were detected and collected dropwise using protein pre-staining solution. […]

GhTPL = experiment: CO-IP experiment with GhTPL; type: binding, cotton
Procedure: Steps of method of CO-IP experiment: Non-denaturing lysate was added to 293T cell culture plate (Pricella, Cat. No.: CL-0005), and the cells were completely lysed at 4° C. The lysate was centrifuged at 12,000 rpm for 10 min and the supernatant was collected. The corresponding antibody was added to the obtained non-denatured protein solution, which was incubated overnight at 4° C. Pierce™ protein A/G magnetic agarose (Thermo Fisher Scientific, Inc.) were washed with lysis buffer, followed by addition pre-treated beads to the cell lysate, and incubation at room temperature for 2 hours. The mixture was centrifuged at 4° C., 2,500 rpm for 5 min with supernatant removed, and the agarose beads were washed 5 times with 1 ml of lysis buffer. An appropriate amount of protein loading buffer was added to the pellet, and the sample was incubated in water bath at 100° C. for 10 min. The band of interest was detected by Western blotting.

[1] = tested on: downstream genes of c-Myc in normal cell MCF10A; experiment: RT-PCR of c-Myc downstream genes, MCF10A; type: cell-based, human
Procedure: Identification at the RNA level: RNA was extracted using RNA extraction kit (RNAprep Pure Polysaccharide Polyphenol Plant Total RNA Extraction Kit (DP441), manufacturer: TIANGEN BIOTECH (BEIJING) CO., LTD.), and then cDNA was obtained using two-step reverse transcription kit (a third-generation premix for two-step de-genomization and reverse transcription, Cat. No.: MR05201). cDNA as a template was added into a 96-well plate, with addition of SYBR®Green I chimeric dye (an antibody dye quantitative PCR premix, Cat. No.: MQ10101) and gene primers for three-step qPCR amplification. Finally, the relative gene expression was calculated based on the Ct value.
Wherein, the sequences of primers were as follows: […]

Sequence of GhTPL (as listed by the source): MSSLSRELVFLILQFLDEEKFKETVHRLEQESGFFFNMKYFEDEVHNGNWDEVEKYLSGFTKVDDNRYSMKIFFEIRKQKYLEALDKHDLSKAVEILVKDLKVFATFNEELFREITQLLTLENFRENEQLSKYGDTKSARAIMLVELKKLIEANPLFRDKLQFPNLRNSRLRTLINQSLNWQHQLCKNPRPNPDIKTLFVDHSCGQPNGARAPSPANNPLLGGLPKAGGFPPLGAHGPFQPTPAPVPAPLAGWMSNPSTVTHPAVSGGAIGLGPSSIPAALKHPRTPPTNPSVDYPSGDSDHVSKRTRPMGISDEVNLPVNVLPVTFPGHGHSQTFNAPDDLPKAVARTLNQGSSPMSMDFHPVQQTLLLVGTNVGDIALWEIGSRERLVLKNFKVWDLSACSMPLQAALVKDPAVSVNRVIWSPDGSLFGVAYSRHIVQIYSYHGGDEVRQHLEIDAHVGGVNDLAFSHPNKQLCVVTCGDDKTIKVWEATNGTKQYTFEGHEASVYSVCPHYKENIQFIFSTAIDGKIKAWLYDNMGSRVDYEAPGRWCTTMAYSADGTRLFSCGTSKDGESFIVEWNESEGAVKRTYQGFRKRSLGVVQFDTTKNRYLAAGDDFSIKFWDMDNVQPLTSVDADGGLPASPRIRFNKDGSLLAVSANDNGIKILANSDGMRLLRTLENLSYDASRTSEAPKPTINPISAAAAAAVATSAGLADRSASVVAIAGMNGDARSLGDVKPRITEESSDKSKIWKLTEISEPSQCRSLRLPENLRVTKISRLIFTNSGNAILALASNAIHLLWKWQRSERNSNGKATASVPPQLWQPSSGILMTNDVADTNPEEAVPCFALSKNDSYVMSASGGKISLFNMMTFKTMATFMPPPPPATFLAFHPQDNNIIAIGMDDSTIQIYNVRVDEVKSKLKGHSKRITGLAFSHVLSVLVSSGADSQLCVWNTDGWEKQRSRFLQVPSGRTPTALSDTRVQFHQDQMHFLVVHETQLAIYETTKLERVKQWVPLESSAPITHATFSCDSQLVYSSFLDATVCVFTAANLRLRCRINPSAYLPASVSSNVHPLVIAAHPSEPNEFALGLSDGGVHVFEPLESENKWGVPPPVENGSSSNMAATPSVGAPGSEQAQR
Sequence of c-Myc (P01106 whole entry, the tested form may be a part): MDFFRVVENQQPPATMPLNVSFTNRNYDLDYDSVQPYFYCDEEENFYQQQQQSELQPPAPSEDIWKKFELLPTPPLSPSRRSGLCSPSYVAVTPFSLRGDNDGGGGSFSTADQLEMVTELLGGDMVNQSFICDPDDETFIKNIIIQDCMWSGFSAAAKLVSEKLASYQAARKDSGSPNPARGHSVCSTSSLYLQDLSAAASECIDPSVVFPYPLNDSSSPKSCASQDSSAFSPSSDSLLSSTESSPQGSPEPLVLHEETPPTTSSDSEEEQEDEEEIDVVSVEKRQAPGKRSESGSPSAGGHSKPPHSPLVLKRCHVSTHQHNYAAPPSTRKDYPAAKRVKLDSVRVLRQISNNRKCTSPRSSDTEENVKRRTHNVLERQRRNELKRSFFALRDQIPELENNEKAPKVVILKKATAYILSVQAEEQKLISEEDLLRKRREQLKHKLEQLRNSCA

B1: GhJAZ1: cotton JAZ1 protein, gene number Gh_A05G0260, sequence SEQ ID No. 4; prokaryotically expressed with His tag, about 30 KD (protein)
chain: MSSCSESTAMKPARSPEKPSFAQTCNLLSQYLKEKGSFGDLSLGMTCNVEANGTPVVPPPTMNLFPLNDKSDDVCGRNGGNPKNLTSMDLFPQQAGLASKDDSPNKLEPQTAPMTIFYGGQVIVFNDFPANKAKEIMLLASNSSSQSNNSFNPIPFTSSIARSPIESSIGVPPTSKPVHPAQRAVPGDLPIARRASLHRFLEKRKDRITAKAPYQINNSAAAPSLSGDNKSWLGLAAQSP
modifications: His tag
notes: prokaryotically expressed with His tag, about 30 KD
interaction with c-Myc (c-Myc): interacted | interaction with GhTPL (GhTPL): interacts | expression of Bcl2 and MCM5 [1]: significantly decreased but at a minor extent | expression of P21C, CNB1, CCND1, and CCNE1 ([1]; at a minor extent): significantly increased
